Tests used:
IgE = conditions: literature reports (Chua et al 1992; Shoji et al 1996, 1997); cited from earlier work
[1] = test system: IgE from mite-allergic or normal human sera; assay: ELISA, binding of IgE from human sera to coated Der f 1 proteins or mite extracts, detected with FcεR1α-biotin
[2] = test system: IgE from mite-allergic dog sera; assay: ELISA, binding of IgE from dog sera to coated Der f 1 proteins or mite extracts, detected with FcεR1α-biotin
Experimental: Native or recombinant Der f 1 proteins in 100 μl CBC buffer (50 mM sodium carbonate, pH 9.6) were coated onto wells (100 ng per well) of Immulon II microtiter plates (available from Dynex Technologies, Chantilly, Va.) by incubation at 4° C., covered, overnight. Excess fluid was removed and wells were blocked with 200 μl Assay Buffer (4% fetal calf serum (available from Summit Laboratories, Fort Collins, Colo.) in phosphate buffered saline (PBS, recipe in Sambrook, ibid.), plus 0.05% Tween-20 (available from Sigma, St. Louis, Mo.)) for one hour at room temperature. Plates were then washed for 4 cycles on an automatic plate washer (Ultrawash, available from Dynatech Laboratories) using PBS with 0.05% Tween-20. […] Control wells were treated identically except that no serum was added. Plates were then washed as described above. Biotinylated human IgE receptor alpha chain (FcεR1α-biotin) (100 μl of 1.3 ng/ml) prepared as described in U.S. Pat. No. 5,945,294, ibid., was added and incubated for one hour at room temperature. After this incubation, plates were washed as described above. Streptavidin-horseradish peroxidase conjugate (0.5 mg/ml, available from KPL Labs, Gaithersburg, Md.) was added at a 1:5000 dilution in Assay Buffer for one hour at room temperature, after which plates were washed as described above. TMB Peroxidase substrate system, 2 part (available from KPL Labs, #0-76-00), added at 100 μl per well, was used according to the manufacturer's directions. The color reaction was allowed to proceed until good color development was reached (about 10-15 min); then the reaction was stopped with 100 μl per well of 1 M phosphoric acid. Bound IgE was determined by measuring absorbance (Optical Density, or OD) at 450 nm (nanometers) using an ELISA plate reader (such as Spectramax”, Molecular Devices, Sunnyvale, Calif.). Background OD readings in the control wells were subtracted from all numbers. Results are reported in Tables 1, 2 and 3 as OD multiplied by 1000. OD numbers greater than 100 are considered to be positive for a reaction with IgE. P. pastoris-expressed proteins are denoted in the Tables as Pichia expressed proteins.

[3] = test system: IgE from pooled mite-allergic human sera; assay: Monoclonal Capture ELISA (Example 8B, Table 7); type: binding
Experimental: Assays were carried out as follows. A microtiter plate as described in Example 5 was coated overnight at 4° C. with 100 ng/well of anti-Der f 1 protein monoclonal antibody 6A8, denoted herein as anti-Der f 1 MAb 6A8, provided by Dr. Martin Chapman. The plate was washed in the manner described above. The following proteins were then added to wells, having been diluted in Assay Buffer in a 2-fold dilution series, from 0.75 to 50 ng/well: Heska native Derf1, P. pastoris-expressed PDerf1303b, and E. coli-expressed PDerf1303c. After incubation for 1 hour at room temperature, plates were washed as described in Example 5. Then 100 μl per well of a 1:1000 dilution in Assay Buffer of biotinylated anti-Der f 1 monoclonal antibody 4C1, also denoted anti-Der f 1 MAb 4C1, provided by Dr. Martin Chapman, was added for 1 hour at room temperature. Plates were washed, streptavidin-HRP conjugate was added, and plates were developed as described in Example 5.
B. The Der f 1 proteins described in Example 8B were reacted as described in Example 6 with a pool of serum samples collected from 16 mite-allergic human patients.

B1: Der f 1 pro-form: Recombinant Der f 1 pro-form from baculovirus expression system in insect cells (Shoji et al) (protein, listed as Dermatophagoides farinae)
chain: RPASIKTFEEFKKAFNKNYATVEEEEVARKNFLESLKYVEANKGAINHLSDLSLDEFKNRYLMSAEAFEQLKTQFDLNAETSACRINSVNVPSELDLRSLRTVTPIRMQGGCGSCWAFSGVAATESAYLAYRNTSLDLSEQELVDCASQHGCHGDTIPRGIEYIQQNGVVEERSYPYVAREQRCRRPNSQHYGISNYCQIYPPDVKQIREALTQTHTAIAVIIGIKDLRAFQHYDGRTIIQHDNGYQPNYHAVNIVGYGSTQGDDYWIVRNSWDTTWGDSGYGYFQAGNNLMMIEQYPYVVIM
In the case of B1, the “IgE reactivity relative to the native protein” value (IgE) is listed as 20%.

B2: Chapman native Derf1: Native purified Der f 1 protein, purified in the laboratory of Martin Chapman (protein)
chain: TSACRINSVNVPSELDLRSLRTVTPIRMQGGCGSCWAFSGVAATESAYLAYRNTSLDLSEQELVDCASQHGCHGDTIPRGIEYIQQNGVVEERSYPYVAREQRCRRPNSQHYGISNYCQIYPPDVKQIREALTQTHTAIAVIIGIKDLRAFQHYDGRTIIQHDNGYQPNYHAVNIVGYGSTQGDDYWIVRNSWDTTWGDSGYGYFQAGNNLMMIEQYPYVVIM
In the case of B2, the “OD, bound IgE” value ([1]; Assay Number 1, serum human 1916) is reported as 17 OD multiplied by 1000, the “OD, bound IgE” value ([1]; Assay Number 1, serum human3848) is reported as 2336 OD multiplied by 1000 and the “OD, bound IgE” value ([1]; Assay Number 1, serum human 3958) is reported as 1261 OD multiplied by 1000. For the same molecule, the “OD, bound IgE” value ([1]; Assay Number 1, serum human 3960) was 1024 OD multiplied by 1000, the “OD, bound IgE” value ([1]; Assay Number 1, serum human 3961) was 326 OD multiplied by 1000 and the “OD, bound IgE” value ([1]; Assay Number 1, serum human 3987) was 1216 OD multiplied by 1000. For the same molecule, the “OD, bound IgE” value ([1]; Assay Number 1, serum human 4289) was 287 OD multiplied by 1000, the “OD, bound IgE” value ([1]; Assay Number 1, serum human 4467) was 615 OD multiplied by 1000 and the “OD, bound IgE” value ([1]; Assay Number 1, serum human 5207) was 2669 OD multiplied by 1000. For the same molecule, the “OD, bound IgE” value ([1]; Assay Number 1, serum human pool) was 1531 OD multiplied by 1000, the “OD, bound IgE” value ([1]; Assay Number 2, serum Heska human B) was 0 OD multiplied by 1000 and the “OD, bound IgE” value ([1]; Assay Number 2, serum Heska human C) was 0 OD multiplied by 1000. For the same molecule, the “OD, bound IgE” value ([1]; Assay Number 2, serum Heska human D) was 0 OD multiplied by 1000, the “OD, bound IgE” value ([1]; Assay Number 2, serum Heska human E) was 2 OD multiplied by 1000 and the “OD, bound IgE” value ([1]; Assay Number 2, serum Heska human F) was 0 OD multiplied by 1000. For the same molecule, the “OD, bound IgE” value ([1]; Assay Number 2, serum Heska human G) was 0 OD multiplied by 1000, the “OD, bound IgE” value ([1]; Assay Number 2, serum Heska human H) was 0 OD multiplied by 1000 and the “OD, bound IgE” value ([1]; Assay Number 2, serum Heska human I) was 0 OD multiplied by 1000. For the same molecule, the “OD, bound IgE” value ([1]; Assay Number 2, serum Heska human J) was 0 OD multiplied by 1000, the “OD, bound IgE” value ([1]; Assay Number 2, serum Heska human K) was 0 OD multiplied by 1000 and the “OD, bound IgE” value ([1]; Assay Number 2, serum Heska human L) was 0 OD multiplied by 1000. For the same molecule, the “OD, bound IgE” value ([1]; Assay Number 2, serum Heska human M) was 0 OD multiplied by 1000, the “OD, bound IgE” value ([1]; Assay Number 2, serum Heska human N) was 373 OD multiplied by 1000 and the “OD, bound IgE” value ([1]; Assay Number 2, serum Heska human O) was 0 OD multiplied by 1000. The “OD, bound IgE” value ([1]; Assay Number 2, serum Heska human P) was 0 OD multiplied by 1000, the “OD, bound IgE” value ([1]; Assay Number 2, serum Heska human Q) was 0 OD multiplied by 1000 and the “OD, bound IgE” value ([1]; Assay Number 2, serum Heska human R) was 0 OD multiplied by 1000. The “OD, bound IgE” value ([1]; Assay Number 2, serum human 1916) was 8 OD multiplied by 1000, the “OD, bound IgE” value ([1]; Assay Number 2, serum human 3848) was 1726 OD multiplied by 1000 and the “OD, bound IgE” value ([1]; Assay Number 2, serum human 3958) was 822 OD multiplied by 1000. For the same molecule, the “OD, bound IgE” value ([1]; Assay Number 2, serum human 3960) was 522 OD multiplied by 1000, the “OD, bound IgE” value ([1]; Assay Number 2, serum human 3961) was 169 OD multiplied by 1000 and the “OD, bound IgE” value ([1]; Assay Number 2, serum human 3987) was 846 OD multiplied by 1000. The “OD, bound IgE” value ([1]; Assay Number 2, serum human 4289) was 173 OD multiplied by 1000, the “OD, bound IgE” value ([1]; Assay Number 2, serum human 4467) was 353 OD multiplied by 1000 and the “OD, bound IgE” value ([1]; Assay Number 2, serum human 5207) was 2171 OD multiplied by 1000. The “OD, bound IgE” value ([1]; Assay Number 2, serum human pool) was 1236 OD multiplied by 1000, the “OD, bound IgE” value ([1]; Table 3, sera 429, PDerf1303b preparation number A166-26, PDerf1223b preparation 1000-7) was 152 OD multiplied by 1000 and the “OD, bound IgE” value ([1]; Table 3, sera 1916, PDerf1303b preparation number A166-26, PDerf1223b preparation 1000-7) was 14 OD multiplied by 1000. The “OD, bound IgE” value ([1]; Table 3, sera 3848, PDerf1303b preparation number A166-26, PDerf1223b preparation 1000-7) was 1033 OD multiplied by 1000, the “OD, bound IgE” value ([1]; Table 3, sera 3958, PDerf1303b preparation number A166-26, PDerf1223b preparation 1000-7) was 1067 OD multiplied by 1000 and the “OD, bound IgE” value ([1]; Table 3, sera 3960, PDerf1303b preparation number A166-26, PDerf1223b preparation 1000-7) was 738 OD multiplied by 1000. For the same molecule, the “OD, bound IgE” value ([1]; Table 3, sera 3961, PDerf1303b preparation number A166-26, PDerf1223b preparation 1000-7) was 221 OD multiplied by 1000, the “OD, bound IgE” value ([1]; Table 3, sera 3987, PDerf1303b preparation number A166-26, PDerf1223b preparation 1000-7) was 865 OD multiplied by 1000 and the “OD, bound IgE” value ([1]; Table 3, sera 4467, PDerf1303b preparation number A166-26, PDerf1223b preparation 1000-7) was 489 OD multiplied by 1000. For the same molecule, the “OD, bound IgE” value ([1]; Table 3, sera 5207, PDerf1303b preparation number A166-26, PDerf1223b preparation 1000-7) was 1836 OD multiplied by 1000, the “OD, bound IgE” value ([1]; Table 3, sera human pool, PDerf1303b preparation number A166-26, PDerf1223b preparation 1000-7) was 1114 OD multiplied by 1000 and the “OD, bound IgE” value ([1]; Table 6, pool of sera from 16 mite-allergic human patients, 6.2 ng protein per well) was 17 OD. For the same molecule, the “OD, bound IgE” value ([1]; Table 6, pool of sera from 16 mite-allergic human patients, 12.5 ng protein per well) was 116 OD, the “OD, bound IgE” value ([1]; Table 6, pool of sera from 16 mite-allergic human patients, 25 ng protein per well) was 215 OD and the “OD, bound IgE” value ([1]; Table 6, pool of sera from 16 mite-allergic human patients, 50 ng protein per well) was 488 OD. For the same molecule, the “OD, bound IgE” value ([1]; Table 6, pool of sera from 16 mite-allergic human patients, 100 ng protein per well) was 581 OD, the “OD, bound IgE” value ([1]; Table 6, pool of sera from 16 mite-allergic human patients, 200 ng protein per well) was 584 OD and the “OD, bound IgE” value ([2]; Assay Number 1, serum dog pool) was 341 OD multiplied by 1000. For the same molecule, the “OD, bound IgE” value ([2]; Assay Number 1, serum dog-1) was 6 OD multiplied by 1000, the “OD, bound IgE” value ([2]; Assay Number 1, serum dog-2) was 1408 OD multiplied by 1000 and the “OD, bound IgE” value ([2]; Assay Number 1, serum dog-3) was 3125 OD multiplied by 1000. For the same molecule, the “OD, bound IgE” value ([2]; Assay Number 2, dog sera pool A 146) was 220 OD multiplied by 1000, the “OD, bound IgE” value ([2]; Assay Number 2, dog sera pool KS338) was 19 OD multiplied by 1000 and the “OD, Monoclonal Capture ELISA” value ([3]; 0.39 ng protein per well) was 1480 OD. For the same molecule, the “OD, Monoclonal Capture ELISA” value ([3]; 0.78 ng protein per well) was 2186 OD, the “OD, Monoclonal Capture ELISA” value ([3]; 1.55 ng protein per well) was 2447 OD and the “OD, Monoclonal Capture ELISA” value ([3]; 3.1 ng protein per well) was 2597 OD. The “OD, Monoclonal Capture ELISA” value ([3]; 6.25 ng protein per well) was 2620 OD, the “OD, Monoclonal Capture ELISA” value ([3]; 12.5 ng protein per well) was 2483 OD and the “OD, Monoclonal Capture ELISA” value ([3]; 25 ng protein per well) was 2249 OD.

Reference: patent publication US8465945B2, “Method for production and use of mite group 1 proteins” (Merck Patent GmbH, priority 1999, dated 2013)
